Data as given in publication PMC10198558, “CryoEM structure of a post-assembly MS-ring reveals plasticity in stoichiometry and conformation” (PLOS ONE, 2023).
Values joined by “and” are separate entries in the source; they are usually repeats but may differ in a detail not shown here. Equal values may be shown once.

Molecular target: the molecule itself
Assay: cryo-EM structure; purified MS-rings (0.5 mg/ml) in 50 mM Tris-HCl pH 7.5, 100 mM NaCl, 0.1% LDAO on graphene oxide grids, no crosslinking; subunits counted in en-face 2D class averages without rotational symmetry averaging; 3D maps with C32, C33, C34 (RBM3), C21, C22 (RBM2 inner) and C11 symmetry

B1: FliF (subunit of the flagellar MS-ring) (natural protein)
chain: MSATASTATQPKPLEWLNRLRANPRIPLIVAGSAAVAIVVAMVLWAKTPDYRTLFSNLSDQDGGAIVAQLTQMNIPYRFANGSGAIEVPADKVHELRLRLAQQGLPKGGAVGFELLDQEKFGISQFSEQVNYQRALEGELARTIETLGPVKSARVHLAMPKPSLFVREQKSPSASVTVTLEPGRALDEGQISAVVHLVSSAVAGLPPGNVTLVDQSGHLLTQSNTSGRDLNDAQLKFANDVESRIQRRIEAILSPIVGNGNVHAQVTAQLDFANKEQTEEHYSPNGDASKATLRSRQLNISEQVGAGYPGGVPGALSNQPAPPNEAPIATPPTNQQNAQNTPQTSTSTNSNSAGPRSTQRNETSNYEVDRTIRHTKMNVGDIERLSVAVVVNYKTLADGKPLPLTADQMKQIEDLTREAMGFSDKRGDTLNVVNSPFSAVDNTGGELPFWQQQSFIDQLLAAGRWLLVLVVAWILWRKAVRPQLTRRVEEAKAAQEQAQVRQETEEAVEVRLSKDEQLQQRRANQRLGAEVMSQRIREMSDNDPRVVALVIRQWMSNDHE
notes: FliF, flagellar M-ring protein, Salmonella enterica serovar typhimurium; Homo-oligomeric ring; 33 subunits is the most common stoichiometry (~80% of particles), 34 ~15%, 32 ~5%; No tag is mentioned; The built models cover only residues 228-438 (RBM3 and beta-collar, PDB 8FTF) and Gln-125 to Gly-227 (RBM2 inner, PDB 8FTE); also called post-assembly MS-ring; FliF protomer; source: E. coli …
  stoichiometry N: 32 subunits and 33 subunits and 34 subunits
